Positions count from the first letter of the chain named. Values belong to the binder of their own block, whether it stands above or below them.
How the values were obtained:
[1] = biological target: cyno GITR (cGITR), form not stated (cynomolgus monkey); experiment: Biacore (SPR)
NGFR = biological target: T1, NGFR (human, UniProt P08138); experiment: specificity ELISA, bacterial lysate on HisGrab nickel plate
T1 sequence (receptor, looked up): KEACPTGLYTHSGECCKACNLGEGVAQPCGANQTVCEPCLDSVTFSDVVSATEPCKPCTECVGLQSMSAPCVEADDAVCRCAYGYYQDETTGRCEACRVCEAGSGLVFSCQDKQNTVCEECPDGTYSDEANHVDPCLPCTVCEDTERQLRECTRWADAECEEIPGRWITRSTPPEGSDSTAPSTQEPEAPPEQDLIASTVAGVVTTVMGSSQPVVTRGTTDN
Protocol: For the specificity ELISA, a crude cell lysate was made from bacteria expressing members of the TNFRSF family. To prevent nonspecific binding to the plate 50 μL of 5% BSA was added per mL of bacterial lysate. […] The plate was then rinsed three times with PBST, then MAB was diluted to 0.5 μg/mL in 10% FBS in PBS and 100 μL was added to each well. The plate was incubated for 1 hour at room temperature and then rinsed three times with PBST. Anti-human kappa antibody (Sigma #A7164) conjugated to HRP was diluted 1:5000 in 1:1 PBST: 10% FBS in PBS and 100 μL added to each well. The plate was incubated for 1 hour at room temperature, and then washed three times with PBST. 100 μL of SureBlue TMB substrate was added to each well and the plate was incubated for about 10 min at room temperature before stopping the reaction with 100 μL /well of 2N H₂SO₄.

[2] = biological target: T2, human GITR expressed on cells (human, UniProt Q9Y5U5 27-241); experiment: cell-based or functional assay
T2 sequence: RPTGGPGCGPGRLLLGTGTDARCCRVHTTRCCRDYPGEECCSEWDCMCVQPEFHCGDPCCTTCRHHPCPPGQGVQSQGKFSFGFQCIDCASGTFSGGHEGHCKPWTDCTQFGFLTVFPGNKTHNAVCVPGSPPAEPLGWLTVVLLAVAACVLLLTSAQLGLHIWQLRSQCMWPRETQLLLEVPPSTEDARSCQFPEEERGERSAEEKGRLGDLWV

fold lower binding affinity for cyno GITR than for human GITR [1]: 2 to 3 fold | EC50, NFκB-luciferase reporter in 293 cells overexpressing human GITR, antibody cross-linked [2]: ~2.5 nM
B1: MAB4 (IgG1 kappa) (antibody, V domains shown)
VH: EVQLVESGGGLVQSGGSLRLSCAASGFSLSSYGVDWVRQAPGKGLEWVGVIWGGGGTYYASSLMGRFTISRDNSKNTLYLQMNSLRAEDTAVYYCAKHAYGHDGGFAMDYWGQGTLVTVSS
VL: EIVMTQSPATLSVSPGERATLSCRASESVSSNVAWYQQRPGQAPRLLIYGASNRATGIPARFSGSGSGTDFTLTISRLEPEDFAVYYCGQSYSYPFTFGQGTKLEIKR
binding result (NGFR): no binding (tested: not on the sheet; paragraph 335: 0.5 µg/mL)

fold lower binding affinity for cyno GITR than for human GITR [1]: 2 to 3 fold | EC50, NFκB-luciferase reporter in 293 cells overexpressing human GITR, antibody cross-linked [2]: ~2.5 nM
B2: MAB5 (IgG1 kappa) (antibody, V domains shown)
VH: B1 VH with V48L, A60T
VL: B1 VL
notes: also called MABS (misprint of MAB5)
binding result (NGFR): no binding (tested: not on the sheet; paragraph 335: 0.5 µg/mL)
